Measurements as given in article PMC9765439, “Systems-Wide Dissection of Organic Acid Assimilation in Pseudomonas aeruginosa Reveals a Novel Path To Underground Metabolism” (mBio, 2022).

Test system: T1, PrpR (His6-PrpR) (Pseudomonas aeruginosa PAO1?), ORF:9118ca87
T1 sequence: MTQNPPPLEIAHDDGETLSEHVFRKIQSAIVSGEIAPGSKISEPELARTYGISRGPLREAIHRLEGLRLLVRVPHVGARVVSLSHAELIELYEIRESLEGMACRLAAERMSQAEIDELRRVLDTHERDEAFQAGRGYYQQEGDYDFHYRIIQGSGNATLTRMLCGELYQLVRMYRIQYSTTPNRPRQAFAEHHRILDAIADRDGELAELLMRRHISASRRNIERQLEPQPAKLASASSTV
Test: EMSA
Settings: 30 mM Tris-HCl pH 8.0, 120 mM KCl, 1 mM MnCl2, 1 mM MgCl2, 20% glycerol, 240 ug/mL BSA, 15.2 ug/mL poly(dI-dC), 21 C, 60 min; 6% PAGE in TBE

In the case of “CTGCTTCATCACGTCGCCCATGCCGCAGGCGAAGTCGATCAGGCGCGGCAACACGTAACGGTCATAGATGCCCACGAAACTCTCTCCTGGCACAGCGGCTGGAGGGGAAAGCATAGACCAGCGATGCATTAGACGATTGTCGACAATCAAGCGACGAATGATTGACCCCACGCAATCCAGGCGGTAGCTTTCGCAAACATTGTCGACACATCGACCCGGACAGCCAGTACCATGACCCAGAACCCGCCCCCTCTCGAGATTGCCCATGAC (double strand) [prpR promoter (prpRp)]”, the binding is reported as “binds”.
